The target in assay [1] is Biotinylated SUMO [SUMO: Q12306]. In words: BLI.
The target of assay [2] is N-terminal region of PARP2 (NTR; aa 1–80) (human) (UniProt Q9UGN5). In words: ITC. (Isothermal titration calorimetry measures the heat released or taken up as one component is titrated into another.)
Assay [3] concerns the target NTR-WGR construct of PARP2 (aa 1–205) (human) (UniProt Q9UGN5). In words: ITC.
Assay [4] deals with WGR-CAT construct of PARP2 (aa 81–570) (human) (UniProt Q9UGN5). Kind of assay: ITC.
In assay [5] the target is Full-length human PARP2 isoform 2 (amino acids 1–570) (human) (UniProt Q9UGN5). In words: ITC.
Assay [6] has the same target. In words: BLI. In general terms: BLI is a label-free optical method that tracks binding on a fibre tip over time.

As for “Full-length human PARP2 isoform 2 (amino acids 1–570) (from UniProt Q9UGN5-2 1-570) (enzyme)”, in assay [1], the dissociation constant (Kd) (commonly the constant that tells how readily two partners part at equilibrium) stood at 66.8 µM; the koff (commonly a measure of how fast the partners let go of each other) stood at 0.301 s⁻¹; the kon (as a rule, a measure of how fast the partners come together) is 4500 M⁻¹ s⁻¹.
For “Small ubiquitin like modifier (SUMO) (from UniProt Q12306 1-101) (natural protein)”, the Kd in assay [2] was 201 µM; in assay [3] it was 125 µM; in assay [4] it was 1000 µM; in assay [5], 45.6 µM. In assay [6], the IC50 – broadly, the concentration that inhibits the measured activity by half – was found to be 0.82 µM.

The values above are taken from paper doi:10.1101/2025.08.29.673013.
